From patent publication US20250340902A1, “GENE THERAPY FOR BVES-RELATED DISORDERS” (OHIO STATE INNOVATION FOUNDATION, priority 2022, published 2025)

Columns and labels:
Assay in all cases: anti-HA co-IP from muscle, MS; CTRL 0
[1] = biological target: 40S ribosomal protein S27 (Mus musculus) (UniProt Q6ZWU9)
[2] = biological target: ATP-binding cassette sub-family C member 9 (Mus musculus) (UniProt P70170)
[3] = biological target: ATP-binding cassette sub-family F member 1 (Mus musculus) (UniProt Q6P542)
[4] = biological target: Acetyl-CoA acetyltransferase, mitochondrial (Mus musculus) (UniProt Q8QZT1)
[5] = biological target: Actin-binding LIM protein 2 (Mus musculus) (UniProt Q8BL65)
[6] = biological target: Bifunctional purine biosynthesis protein ATIC (Mus musculus) (UniProt Q9CWJ9)
[7] = biological target: C-type lectin domain family 3 member A (Mus musculus) (UniProt Q9EPW4)
[8] = biological target: CDP-diacylglycerol--inositol 3-phosphatidyltransferase (Mus musculus) (UniProt Q8VDP6)
[9] = biological target: Carboxypeptidase N catalytic chain (Mus musculus) (UniProt Q9JJN5)
[10] = biological target: Casein kinase II subunit alpha (Mus musculus) (UniProt Q60737)
[11] = biological target: Cell cycle progression protein 1 (Mus musculus) (UniProt Q640L3)
[12] = biological target: Charged multivesicular body protein 4b (Mus musculus) (UniProt Q9D8B3)
[13] = biological target: DnaJ homolog subfamily B member 12 (Mus musculus) (UniProt Q9QYI4)
[14] = biological target: Dual specificity mitogen-activated protein kinase kinase 3 (Mus musculus) (UniProt O09110)
[15] = biological target: Dystroglycan (Mus musculus) (UniProt Q62165)
[16] = biological target: EH domain-containing protein 2 (Mus musculus) (UniProt Q8BH64)
[17] = biological target: Extended synaptotagmin-2 (Mus musculus) (UniProt Q3TZZ7)
[18] = biological target: Ferrochelatase, mitochondrial (Mus musculus) (UniProt P22315)
[19] = biological target: Flavin reductase (NADPH) (Mus musculus) (UniProt Q923D2)
[20] = biological target: GTP-binding protein SAR1b (Mus musculus) (UniProt Q9CQC9)
[21] = biological target: Glypican-4 (Mus musculus) (UniProt P51655)
[22] = biological target: Heterogeneous nuclear ribonucleoprotein L (Mus musculus) (UniProt Q8R081)
[23] = biological target: LEM domain-containing protein 2 (Mus musculus) (UniProt Q6DVA0)
[24] = biological target: Long-chain specific acyl-CoA dehydrogenase, mitochondrial (Mus musculus) (UniProt P51174)
[25] = biological target: Lupus La protein homolog (Mus musculus) (UniProt P32067)
[26] = biological target: Medium-chain specific acyl-CoA dehydrogenase, mitochondrial (Mus musculus) (UniProt P45952)
[27] = biological target: Nuclear mitotic apparatus protein 1 (Mus musculus) (UniProt E9Q7G0)
[28] = biological target: Patatin-like phospholipase domain-containing protein 7 (Mus musculus) (UniProt A2AJ88)
[29] = biological target: Phosphofurin acidic cluster sorting protein 1 (Mus musculus) (UniProt Q8K212)
[30] = biological target: Popeye domain-containing protein 2 (Mus musculus) (UniProt Q9ES82)
[31] = biological target: Popeye domain-containing protein 3 (Mus musculus) (UniProt Q9ES81)
[32] = biological target: RUN and FYVE domain-containing protein 1 (Mus musculus) (UniProt Q8BIJ7)
[33] = biological target: Ribosomal protein S6 kinase alpha-2 (Mus musculus) (UniProt Q9WUT3)
[34] = biological target: Sodium/potassium-transporting ATPase subunit alpha-1 (Mus musculus) (UniProt Q8VDN2)
[35] = biological target: Solute carrier family 12 member 1 (Mus musculus) (UniProt P55014)
[36] = biological target: Solute carrier family 12 member 2 (Mus musculus) (UniProt P55012)
[37] = biological target: Transcriptional regulator ATRX (Mus musculus) (UniProt Q61687)
[38] = biological target: Transmembrane protein 43 (Mus musculus) (UniProt Q9DBS1)

human BVES fused with 3xHA tag, sequence (Q8NE79 other isoform, or with tags, fused parts or gaps limits assumed): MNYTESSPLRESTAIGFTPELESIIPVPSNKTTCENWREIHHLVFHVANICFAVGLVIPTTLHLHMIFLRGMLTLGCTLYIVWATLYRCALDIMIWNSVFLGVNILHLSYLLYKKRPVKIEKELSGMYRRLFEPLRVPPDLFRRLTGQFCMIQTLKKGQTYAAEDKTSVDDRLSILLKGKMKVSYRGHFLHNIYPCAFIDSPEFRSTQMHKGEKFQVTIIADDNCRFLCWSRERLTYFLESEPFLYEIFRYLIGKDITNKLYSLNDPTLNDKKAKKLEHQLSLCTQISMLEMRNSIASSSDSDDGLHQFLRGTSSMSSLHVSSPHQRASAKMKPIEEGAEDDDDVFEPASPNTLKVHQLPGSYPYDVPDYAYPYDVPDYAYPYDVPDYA
Ferrochelatase, mitochondrial (Mus musculus), sequence (P22315 54-422 limits assumed): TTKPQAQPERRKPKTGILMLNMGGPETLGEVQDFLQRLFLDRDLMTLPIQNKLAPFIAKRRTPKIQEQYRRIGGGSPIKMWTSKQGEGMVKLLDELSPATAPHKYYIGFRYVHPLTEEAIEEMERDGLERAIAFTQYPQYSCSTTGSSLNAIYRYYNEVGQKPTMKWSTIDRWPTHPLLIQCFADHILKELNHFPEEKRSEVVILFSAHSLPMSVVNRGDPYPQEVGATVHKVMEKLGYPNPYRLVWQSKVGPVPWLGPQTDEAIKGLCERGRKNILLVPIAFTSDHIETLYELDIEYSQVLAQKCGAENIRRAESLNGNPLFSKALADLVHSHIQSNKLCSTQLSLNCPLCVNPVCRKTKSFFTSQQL
Long-chain specific acyl-CoA dehydrogenase, mitochondrial (Mus musculus), sequence (P51174 31-430 limits assumed): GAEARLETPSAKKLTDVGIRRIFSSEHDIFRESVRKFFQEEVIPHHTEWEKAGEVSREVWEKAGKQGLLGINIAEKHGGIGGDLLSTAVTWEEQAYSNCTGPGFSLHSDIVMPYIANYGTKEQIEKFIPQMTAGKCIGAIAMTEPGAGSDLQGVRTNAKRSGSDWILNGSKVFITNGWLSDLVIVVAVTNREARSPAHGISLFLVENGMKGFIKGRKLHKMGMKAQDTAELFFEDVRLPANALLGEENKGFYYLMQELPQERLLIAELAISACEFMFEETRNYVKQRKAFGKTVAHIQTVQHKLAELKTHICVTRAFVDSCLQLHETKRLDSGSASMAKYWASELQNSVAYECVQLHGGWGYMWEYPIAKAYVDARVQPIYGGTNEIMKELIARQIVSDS
RUN and FYVE domain-containing protein 1 (Mus musculus), sequence (Q8BIJ7 whole entry, the tested form may be a part): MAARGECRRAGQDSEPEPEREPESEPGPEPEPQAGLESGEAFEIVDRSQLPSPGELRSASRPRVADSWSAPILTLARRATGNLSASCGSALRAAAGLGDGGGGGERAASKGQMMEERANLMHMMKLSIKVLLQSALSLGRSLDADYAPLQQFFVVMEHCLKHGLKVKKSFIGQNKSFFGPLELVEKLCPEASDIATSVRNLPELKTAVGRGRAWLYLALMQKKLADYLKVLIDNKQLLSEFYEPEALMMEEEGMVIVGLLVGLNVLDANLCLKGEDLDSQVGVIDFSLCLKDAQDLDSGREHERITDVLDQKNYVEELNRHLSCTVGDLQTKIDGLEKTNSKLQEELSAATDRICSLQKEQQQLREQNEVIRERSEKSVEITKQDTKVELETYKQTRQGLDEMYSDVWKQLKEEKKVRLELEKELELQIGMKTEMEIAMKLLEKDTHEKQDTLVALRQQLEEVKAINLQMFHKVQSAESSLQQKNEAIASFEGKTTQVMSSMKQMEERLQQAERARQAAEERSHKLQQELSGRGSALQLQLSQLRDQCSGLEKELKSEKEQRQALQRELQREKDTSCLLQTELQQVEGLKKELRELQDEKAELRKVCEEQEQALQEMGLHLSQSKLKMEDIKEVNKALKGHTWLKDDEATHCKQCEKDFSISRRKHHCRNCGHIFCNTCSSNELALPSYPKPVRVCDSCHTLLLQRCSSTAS
Dystroglycan (Mus musculus), sequence (Q62165 28-893 limits assumed): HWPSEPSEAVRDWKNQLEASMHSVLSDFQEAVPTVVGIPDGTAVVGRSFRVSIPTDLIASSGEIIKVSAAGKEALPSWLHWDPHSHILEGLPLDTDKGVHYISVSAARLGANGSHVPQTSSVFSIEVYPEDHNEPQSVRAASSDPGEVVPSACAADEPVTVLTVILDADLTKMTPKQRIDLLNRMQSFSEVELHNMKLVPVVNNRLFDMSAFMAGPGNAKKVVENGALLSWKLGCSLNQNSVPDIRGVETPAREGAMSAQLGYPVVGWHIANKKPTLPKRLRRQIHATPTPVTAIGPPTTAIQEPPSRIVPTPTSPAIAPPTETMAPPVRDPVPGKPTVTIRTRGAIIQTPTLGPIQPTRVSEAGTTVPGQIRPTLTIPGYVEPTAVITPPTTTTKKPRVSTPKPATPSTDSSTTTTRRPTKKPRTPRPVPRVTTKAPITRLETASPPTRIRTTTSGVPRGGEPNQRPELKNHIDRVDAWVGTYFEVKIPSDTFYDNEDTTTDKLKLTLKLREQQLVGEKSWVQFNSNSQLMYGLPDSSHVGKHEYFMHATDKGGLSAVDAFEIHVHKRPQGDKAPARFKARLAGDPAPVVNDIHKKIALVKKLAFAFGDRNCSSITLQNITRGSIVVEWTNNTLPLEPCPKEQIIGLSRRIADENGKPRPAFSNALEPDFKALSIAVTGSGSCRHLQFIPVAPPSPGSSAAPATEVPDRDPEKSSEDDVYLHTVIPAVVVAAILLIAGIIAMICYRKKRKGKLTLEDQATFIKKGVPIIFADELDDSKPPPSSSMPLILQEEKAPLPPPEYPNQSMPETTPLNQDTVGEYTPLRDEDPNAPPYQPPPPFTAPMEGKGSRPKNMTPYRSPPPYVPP
DnaJ homolog subfamily B member 12 (Mus musculus), sequence (Q9QYI4 whole entry): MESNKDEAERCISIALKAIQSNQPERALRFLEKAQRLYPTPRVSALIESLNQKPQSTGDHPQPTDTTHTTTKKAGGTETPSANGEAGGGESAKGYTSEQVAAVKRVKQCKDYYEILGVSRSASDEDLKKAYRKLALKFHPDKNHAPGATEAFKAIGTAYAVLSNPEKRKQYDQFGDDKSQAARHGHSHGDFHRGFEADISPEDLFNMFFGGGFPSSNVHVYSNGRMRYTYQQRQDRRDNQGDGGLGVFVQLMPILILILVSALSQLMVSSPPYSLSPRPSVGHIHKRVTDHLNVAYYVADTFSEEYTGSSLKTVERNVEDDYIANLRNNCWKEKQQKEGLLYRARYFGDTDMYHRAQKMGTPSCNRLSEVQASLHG
Popeye domain-containing protein 2 (Mus musculus), sequence (Q9ES82 whole entry, the tested form may be a part): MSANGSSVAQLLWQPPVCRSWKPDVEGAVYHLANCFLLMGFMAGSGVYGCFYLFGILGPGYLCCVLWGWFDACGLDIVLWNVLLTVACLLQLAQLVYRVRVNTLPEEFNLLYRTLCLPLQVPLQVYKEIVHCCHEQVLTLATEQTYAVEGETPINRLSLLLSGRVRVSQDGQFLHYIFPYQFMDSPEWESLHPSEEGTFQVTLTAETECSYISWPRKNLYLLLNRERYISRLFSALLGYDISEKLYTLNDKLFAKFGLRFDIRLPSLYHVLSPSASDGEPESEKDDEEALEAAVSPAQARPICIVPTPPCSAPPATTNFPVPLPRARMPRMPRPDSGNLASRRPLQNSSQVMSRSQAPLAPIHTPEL
CDP-diacylglycerol--inositol 3-phosphatidyltransferase (Mus musculus), sequence (Q8VDP6 whole entry): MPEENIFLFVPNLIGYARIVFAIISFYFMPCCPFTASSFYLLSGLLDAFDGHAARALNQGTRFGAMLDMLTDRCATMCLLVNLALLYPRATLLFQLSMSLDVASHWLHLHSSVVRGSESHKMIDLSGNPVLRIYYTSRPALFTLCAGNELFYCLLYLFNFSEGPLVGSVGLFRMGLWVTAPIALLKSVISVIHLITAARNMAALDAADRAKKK
Carboxypeptidase N catalytic chain (Mus musculus), sequence (Q9JJN5 24-457 limits assumed): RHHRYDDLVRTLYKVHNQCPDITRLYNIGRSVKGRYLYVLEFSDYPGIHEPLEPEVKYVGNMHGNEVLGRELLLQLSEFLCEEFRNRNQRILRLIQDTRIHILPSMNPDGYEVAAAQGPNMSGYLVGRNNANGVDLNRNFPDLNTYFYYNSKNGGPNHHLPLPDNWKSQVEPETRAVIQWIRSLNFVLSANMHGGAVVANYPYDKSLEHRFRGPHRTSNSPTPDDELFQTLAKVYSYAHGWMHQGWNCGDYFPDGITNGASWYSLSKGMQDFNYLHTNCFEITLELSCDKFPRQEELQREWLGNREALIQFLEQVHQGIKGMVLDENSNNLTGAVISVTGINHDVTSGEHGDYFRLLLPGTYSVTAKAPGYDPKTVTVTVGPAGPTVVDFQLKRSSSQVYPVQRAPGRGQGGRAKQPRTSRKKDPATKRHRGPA
Actin-binding LIM protein 2 (Mus musculus), sequence (Q8BL65 whole entry): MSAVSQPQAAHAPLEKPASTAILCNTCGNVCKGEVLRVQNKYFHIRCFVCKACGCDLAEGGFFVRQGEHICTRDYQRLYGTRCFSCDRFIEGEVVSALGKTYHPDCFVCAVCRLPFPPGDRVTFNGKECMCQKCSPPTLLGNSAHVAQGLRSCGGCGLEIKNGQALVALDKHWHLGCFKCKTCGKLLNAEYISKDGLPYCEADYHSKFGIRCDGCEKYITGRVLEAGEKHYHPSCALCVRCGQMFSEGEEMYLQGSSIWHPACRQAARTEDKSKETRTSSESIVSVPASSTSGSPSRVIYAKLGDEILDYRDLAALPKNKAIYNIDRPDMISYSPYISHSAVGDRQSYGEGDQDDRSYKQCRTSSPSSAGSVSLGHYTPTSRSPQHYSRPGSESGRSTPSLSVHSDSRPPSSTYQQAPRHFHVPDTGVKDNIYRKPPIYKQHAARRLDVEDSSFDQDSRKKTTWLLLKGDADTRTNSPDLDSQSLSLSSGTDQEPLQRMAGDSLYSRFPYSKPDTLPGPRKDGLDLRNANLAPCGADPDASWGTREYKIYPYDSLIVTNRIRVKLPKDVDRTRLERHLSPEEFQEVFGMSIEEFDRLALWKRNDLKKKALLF
C-type lectin domain family 3 member A (Mus musculus), sequence (Q9EPW4 23-196 limits assumed): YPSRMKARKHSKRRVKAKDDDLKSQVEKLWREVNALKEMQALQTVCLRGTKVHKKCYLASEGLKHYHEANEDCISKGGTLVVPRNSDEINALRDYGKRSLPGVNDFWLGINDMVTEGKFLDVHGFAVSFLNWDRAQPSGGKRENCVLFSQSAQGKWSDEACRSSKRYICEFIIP

AAV9-BVES-HA (IP-MS count) [1]: 2
AAV9-BVES-HA (IP-MS count) [2]: 14
AAV9-BVES-HA (IP-MS count) [3]: 4
AAV9-BVES-HA (IP-MS count) [4]: 5
AAV9-BVES-HA (IP-MS count) [5]: 2
AAV9-BVES-HA (IP-MS count) [6]: 3
AAV9-BVES-HA (IP-MS count) [7]: 6
AAV9-BVES-HA (IP-MS count) [8]: 2
AAV9-BVES-HA (IP-MS count) [9]: 4
AAV9-BVES-HA (IP-MS count) [10]: 2
AAV9-BVES-HA (IP-MS count) [11]: 2
AAV9-BVES-HA (IP-MS count) [12]: 2
AAV9-BVES-HA (IP-MS count) [13]: 2
AAV9-BVES-HA (IP-MS count) [14]: 3
AAV9-BVES-HA (IP-MS count) [15]: 4
AAV9-BVES-HA (IP-MS count) [16]: 6
AAV9-BVES-HA (IP-MS count) [17]: 2
AAV9-BVES-HA (IP-MS count) [18]: 2
AAV9-BVES-HA (IP-MS count) [19]: 2
AAV9-BVES-HA (IP-MS count) [20]: 3
AAV9-BVES-HA (IP-MS count) [21]: 11
AAV9-BVES-HA (IP-MS count) [22]: 2
AAV9-BVES-HA (IP-MS count) [23]: 2
AAV9-BVES-HA (IP-MS count) [24]: 4
AAV9-BVES-HA (IP-MS count) [25]: 2
AAV9-BVES-HA (IP-MS count) [26]: 2
AAV9-BVES-HA (IP-MS count) [27]: 2
AAV9-BVES-HA (IP-MS count) [28]: 2
AAV9-BVES-HA (IP-MS count) [29]: 2
AAV9-BVES-HA (IP-MS count) [30]: 29
AAV9-BVES-HA (IP-MS count) [31]: 5
AAV9-BVES-HA (IP-MS count) [32]: 5
AAV9-BVES-HA (IP-MS count) [33]: 12
AAV9-BVES-HA (IP-MS count) [34]: 12
AAV9-BVES-HA (IP-MS count) [35]: 2
AAV9-BVES-HA (IP-MS count) [36]: 3
AAV9-BVES-HA (IP-MS count) [37]: 6
AAV9-BVES-HA (IP-MS count) [38]: 2
Substance: human BVES fused with 3xHA tag (from UniProt Q8NE79 1-360)
